To fix the notation:
B1: SAT2 (parent)
chain: LTEAEGWHFFCFQGEATRKLAGK

Experimental findings from the supplement of paper PMC10567573 are described below.
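Note: lentivirally expressed fusions sorted by FACS into six bins by GFP to DsRed ratio, PSI derived from sequencing read proportions per bin multiplied by bin number.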

Variants of B1 are the subject of the series. In words: protein stability index of a GFP-peptide fusion (GPS, HEK-293T) (PSI 1-6); higher = more stable. Particulars: c terminus: native.
LTEAEGWHFFDFQGEATRKLAGK [C11D]: the protein stability index amounted to 3.45.
Regarding LTEAEGWHFFHFQGEATRKLAGK [C11H], the protein stability index turned out to be 2.99.
Then LTEAEGWHFFGFQGEATRKLAGK [C11G], with 3.13; and LTEAEGWHFFQFQGEATRKLAGK [C11Q], with 3.46.
On to LTEAEGWHFFKFQGEATRKLAGK [C11K], for which the protein stability index stood at 3.5.
The same measure for LTEAEGWHFFYFQGEATRKLAGK [C11Y]: 2.12; for LTEAEGWHFFEFQGEATRKLAGK [C11E]: 3.27.
The same measure for LTEAEGWHFFNFQGEATRKLAGK [C11N]: 3.04.
In the case of LTEAEGWHFFLFQGEATRKLAGK [C11L], the protein stability index amounted to 2.42.
The same measure for LTEAEGWHFFSFQGEATRKLAGK [C11S]: 3.68; for LTEAEGWHFFAFQGEATRKLAGK [C11A]: 2.09.
Consider LTEAEGWHFFIFQGEATRKLAGK [C11I], for which the protein stability index was determined as 1.66.
Take LTEAEGWHFFWFQGEATRKLAGK [C11W]: the protein stability index was found to be 1.57.
Then LTEAEGWHFFTFQGEATRKLAGK [C11T], with 2.94; and LTEAEGWHFFMFQGEATRKLAGK [C11M], with 2.6.
Then LTEAEGWHFFVFQGEATRKLAGK [C11V], with 2.37; and LTEAEGWHFFRFQGEATRKLAGK [C11R], with 2.33; and LTEAEGWHFFPFQGEATRKLAGK [C11P], with 3.7.
Then LTEWEGWHFFCFQGEATRKLAGK [A4W], with 2.27; and LTELEGWHFFCFQGEATRKLAGK [A4L], with 2.14.
On to LTEPEGWHFFCFQGEATRKLAGK [A4P], for which the protein stability index came to 3.18.
The same measure for LTEVEGWHFFCFQGEATRKLAGK [A4V]: 1.64.
Then LTEREGWHFFCFQGEATRKLAGK [A4R], with 2.17; and LTEQEGWHFFCFQGEATRKLAGK [A4Q], with 2.36.
The same measure for LTEYEGWHFFCFQGEATRKLAGK [A4Y]: 1.56; for LTESEGWHFFCFQGEATRKLAGK [A4S]: 2.66.
On to LTENEGWHFFCFQGEATRKLAGK [A4N], for which the protein stability index was 2.87.
The same measure for LTETEGWHFFCFQGEATRKLAGK [A4T]: 2.9; for LTEKEGWHFFCFQGEATRKLAGK [A4K]: 2.61.
Then LTEMEGWHFFCFQGEATRKLAGK [A4M], with 1.66; and LTEAEGWHFFCFQGPATRKLAGK [E15P], with 1.97; and LTEAEGWHFFCFQGNATRKLAGK [E15N], with 1.86.
Consider LTEAEGWHFFCFQGGATRKLAGK [E15G], for which the protein stability index was 2.09.
Then LTEAEGWHFFCFQGKATRKLAGK [E15K], with 3.63; and LTEAEGWHFFCFQGHATRKLAGK [E15H], with 2.13; and LTEAEGWHFFCFQGMATRKLAGK [E15M], with 1.57.
The same measure for LTEAEGWHFFCFQGFATRKLAGK [E15F]: 1.57.
With LTEAEGWHFFCFQGCATRKLAGK [E15C], the protein stability index is 2.15.
On to LTEAEGWHFFCFQGLATRKLAGK [E15L], for which the protein stability index turned out to be 3.25.
Then LTEAEGWHFFCFQGAATRKLAGK [E15A], with 1.59; and LTEAEGWHFFCFQGWATRKLAGK [E15W], with 1.77.
The same measure for LTEAEGWHFFCFQGTATRKLAGK [E15T]: 2.72; for LTEAEGWHFFCFQGSATRKLAGK [E15S]: 1.74.
As for LTEAEGWHIFCFQGEATRKLAGK [F9I], the protein stability index was 2.23.
Then LTEAEGWHDFCFQGEATRKLAGK [F9D], with 4.19; and LTEAEGWHEFCFQGEATRKLAGK [F9E], with 4.43; and LTEAEGWHYFCFQGEATRKLAGK [F9Y], with 2.69.
The same measure for LTEAEGWHAFCFQGEATRKLAGK [F9A]: 3.78.
Then LTEAEGWHNFCFQGEATRKLAGK [F9N], with 3.52; and LTEAEGWHLFCFQGEATRKLAGK [F9L], with 1.85.
In the case of LTEAEGWHRFCFQGEATRKLAGK [F9R], the protein stability index was determined as 3.77.
Turning to LTEAEGWHHFCFQGEATRKLAGK [F9H], the protein stability index is 3.48.
Then LTEAEGWHSFCFQGEATRKLAGK [F9S], with 3.56.
On to LTEAEGWHMFCFQGEATRKLAGK [F9M], for which the protein stability index came out at 2.51.
The same measure for LTEAEGWHQFCFQGEATRKLAGK [F9Q]: 3.63.
Then LTEAEGWHPFCFQGEATRKLAGK [F9P], with 4.17; and LTEAEGWHGFCFQGEATRKLAGK [F9G], with 3.69; and LTEAEGWHTFCFQGEATRKLAGK [F9T], with 3.64.
The same measure for LTEAEGWHKFCFQGEATRKLAGK [F9K]: 4.13; for LTEAEGWHCFCFQGEATRKLAGK [F9C]: 3.12.
LTEAERWHFFCFQGEATRKLAGK [G6R]: the protein stability index came to 3.03.
As for LTEAEHWHFFCFQGEATRKLAGK [G6H], the protein stability index was 2.14.
Then LTEAETWHFFCFQGEATRKLAGK [G6T], with 2.03.
The same measure for LTEAESWHFFCFQGEATRKLAGK [G6S]: 2.27.
The same measure for LTEAEKWHFFCFQGEATRKLAGK [G6K]: 2.15; for LTEAEIWHFFCFQGEATRKLAGK [G6I]: 2.49; for LTEAEFWHFFCFQGEATRKLAGK [G6F]: 1.79.
On to LTEAEMWHFFCFQGEATRKLAGK [G6M], for which the protein stability index is 2.05.
The same measure for LTEAEAWHFFCFQGEATRKLAGK [G6A]: 1.58; for LTEAEQWHFFCFQGEATRKLAGK [G6Q]: 2.6.
Then LTEAEYWHFFCFQGEATRKLAGK [G6Y], with 1.61; and LTEAEVWHFFCFQGEATRKLAGK [G6V], with 2.15; and LTEAEDWHFFCFQGEATRKLAGK [G6D], with 3.48.
In the case of LTEAENWHFFCFQGEATRKLAGK [G6N], the protein stability index was determined as 2.56.
The same measure for LTEAEPWHFFCFQGEATRKLAGK [G6P]: 2.78.
The same measure for LTEAECWHFFCFQGEATRKLAGK [G6C]: 1.5; for LTEAEEWHFFCFQGEATRKLAGK [G6E]: 3.1; for LTEAEGWHFVCFQGEATRKLAGK [F10V]: 2.34.
The same measure for LTEAEGWHFICFQGEATRKLAGK [F10I]: 2.42; for LTEAEGWHFPCFQGEATRKLAGK [F10P]: 4.44; for LTEAEGWHFWCFQGEATRKLAGK [F10W]: 1.94.
Take LTEAEGWHFQCFQGEATRKLAGK [F10Q]: the protein stability index was 3.61.
For LTEAEGWHFACFQGEATRKLAGK [F10A], the protein stability index was 3.48.
The same measure for LTEAEGWHFMCFQGEATRKLAGK [F10M]: 3.39; for LTEAEGWHFHCFQGEATRKLAGK [F10H]: 3.46; for LTEAEGWHFCCFQGEATRKLAGK [F10C]: 2.56.
In the case of LTEAEGWHFNCFQGEATRKLAGK [F10N], the protein stability index is 3.94.
Then LTEAEGWHFGCFQGEATRKLAGK [F10G], with 4.09; and LTEAEGWHFRCFQGEATRKLAGK [F10R], with 3.28; and LTEAEGWHFYCFQGEATRKLAGK [F10Y], with 1.92.
Then LTEAEGWHFLCFQGEATRKLAGK [F10L], with 2.68.
For LTEAEGWHFECFQGEATRKLAGK [F10E], the protein stability index was 4.18.
The same measure for LTEAEGWHFSCFQGEATRKLAGK [F10S]: 4.25; for LTEAEGWHFKCFQGEATRKLAGK [F10K]: 3.77.
Then LTEAEGWHFTCFQGEATRKLAGK [F10T], with 3.99.
The same measure for LTEAEGWHFDCFQGEATRKLAGK [F10D]: 4.69; for LTEAKGWHFFCFQGEATRKLAGK [E5K]: 1.18.
